B1: ATP-sensitive inward rectifier potassium channel 10 (Mus musculus), Q9JM63 (parent)
chain: MTSVAKVYYSQTTQTESRPLVAPGIRRRRVLTKDGRSNVRMEHIADKRFLYLKDLWTTFIDMQWRYKLLLFSATFAGTWFLFGVVWYLVAVAHGDLLELGPPANHTPCVVQVHTLTGAFLFSLESQTTIGYGFRYISEECPLAIVLLIAQLVLTTILEIFITGTFLAKIARPKKRAETIRFSQHAVVASHNGKPCLMIRVANMRKSLLIGCQVTGKLLQTHQTKEGENIRLNQVNVTFQVDTASDSPFLILPLTFYHVVDETSPLKDLPLRSGEGDFELVLILSGTVESTSATCQVRTSYLPEEILWGYEFTPAISLSASGKYIADFSLFDQVVKVASPSGLRDSTVRYGDPEKLKLEESLREQAEKEGSALSVRISNV

Variants of: B1
Settings: with inadl_mouse Patj

Row | effect of a mutation on the interaction | Variant
1 | disrupting interaction | V379A
2 | disrupting interaction | S377G
